# B1: KL2B30 Fab (KLCB80) (Fab, V domains shown)
# VH: QVQLQESGPGLVKPSETLSLTCTVSGGSISSYYWSWIRQPPGKGLEWIGYIYYSGSTNYNPSLKSRVTISVDTSKNQFSLKLSSVTAADTAVYYCAGTTIFGVVTPNFYYGMDVWGQGTTVTVSS
# VL: DIQMTQSPSFLSASVGDRVTITCRASQGISSYLAWYQQKPGKAPKFLIYAASTLQSGVPSRFSGSGSGTEFTLTISSLQPEDFATYYCQQLNSYPLTFGGGTKVEIKR
# Molecular target: soluble full length KLK2 protein (human kallikrein-2 6-His protein) (human) (UniProt P20151)
# Experiment: SPR; antibody captured on a chip coated with anti-Fc antibody, soluble hK2 injected, 1:1 Langmuir fit
binder,measurement,value
B1,Kd,0.46 nM

# From US20220356266A1
